Experimental data taken from patent publication US20180339017A1 (Merck Sharp & Dohme, published 2018).
Read-outs that look alike come from different tables or passages of the source. Starred links: 1 amine or outer side, 2 acyl side, 3 side chain; linkers in the order of their positions; H or OH if unused. Non-standard residues stand in square brackets, D forms with d. Groups on a side chain read outwards from the residue. No end group written: not given here. *: point of attachment. γGlu = O=C(O)[C@H](CCC(=O)[*:2])N[*:1]; Palmitoyl = CCCCCCCCCCCCCCCC(=O)*

Legend:
Test in all cases: cell-based or functional assay
human glucagon receptor [1] = target: T1, human glucagon receptor (human, UniProt P47871 26-477)
T1 sequence (P47871 26-477): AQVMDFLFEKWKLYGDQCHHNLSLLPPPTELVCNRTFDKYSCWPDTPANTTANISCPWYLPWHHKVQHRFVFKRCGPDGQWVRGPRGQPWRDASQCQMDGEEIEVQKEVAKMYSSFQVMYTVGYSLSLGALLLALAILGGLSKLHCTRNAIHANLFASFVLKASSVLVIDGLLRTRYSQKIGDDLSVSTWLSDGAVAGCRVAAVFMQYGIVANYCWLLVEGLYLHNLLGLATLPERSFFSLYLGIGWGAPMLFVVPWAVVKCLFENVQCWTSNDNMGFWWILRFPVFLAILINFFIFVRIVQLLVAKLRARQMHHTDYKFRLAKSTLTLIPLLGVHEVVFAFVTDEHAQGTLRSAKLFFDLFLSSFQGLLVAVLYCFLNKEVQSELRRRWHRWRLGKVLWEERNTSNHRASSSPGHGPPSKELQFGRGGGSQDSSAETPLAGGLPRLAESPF

human GLP-1 receptor [2] = target: T2, human GLP-1 receptor (human, UniProt P43220 24-463)
human glucagon receptor [3] = target: T1, human glucagon receptor; remark: listed apart in the source
human GLP-1 receptor [4] = target: T2, human GLP-1 receptor; remark: listed apart in the source

| Binder | EC50 hGCGR (cAMP activity assay) (human glucagon receptor [1]) [nM] | EC50 hGLP1R (cAMP activity assay) (human GLP-1 receptor [2]) [nM] | EC50 hGCGR (cAMP activity assay) (human glucagon receptor [3]) [nM] | EC50 hGLP1 (cAMP activity assay) (human GLP-1 receptor [4]) [nM] |
| --- | --- | --- | --- | --- |
| HSQGTFTSDYSKYLDSLMAQDFVQWLMST-NH2 [PD22] | 0.02 | 0.03 | – | – |
| HSQGTFTSDYSKYLDWRRAQDFVQWLLNT-NH2 [PD23] | 0.03 | 0.05 | – | – |
| H[dS]QGTFLSDYSKLLDSRAAQDFVQWLLQT-NH2 (N-terminus assumed; SMILES CC(C)C[C@H](NC(=O)[C@H](CC(C)C)NC(=O)[C@H](CCCCN)NC(=O)[C@H](CO)NC(=O)[C@H](Cc1ccc(O)cc1)NC(=O)[C@H](CC(=O)O)NC(=O)[C@H](CO)NC(=O)[C@H](CC(C)C)NC(=O)[C@H](Cc1ccccc1)NC(=O)[C@@H](NC(=O)CNC(=O)[C@H](CCC(N)=O)NC(=O)[C@@H](CO)NC(=O)[C@@H](N)Cc1c[nH]cn1)[C@@H](C)O)C(=O)N[C@@H](CC(=O)O)C(=O)N[C@@H](CO)C(=O)N[C@@H](CCCNC(=N)N)C(=O)N[C@@H](C)C(=O)N[C@@H](C)C(=O)N[C@@H](CCC(N)=O)C(=O)N[C@@H](CC(=O)O)C(=O)N[C@@H](Cc1ccccc1)C(=O)N[C@H](C(=O)N[C@@H](CCC(N)=O)C(=O)N[C@@H](Cc1c[nH]c2ccccc12)C(=O)N[C@@H](CC(C)C)C(=O)N[C@@H](CC(C)C)C(=O)N[C@@H](CCC(N)=O)C(=O)N[C@H](C(N)=O)[C@@H](C)O)C(C)C) [TP552] | – | – | 0.02 | 5 |
| H[dS]QGTFLSDK([γGlu-γGlu-Palmitoyl])SKLLDSRRAQDFVQWLMQT-NH2 (N-terminus assumed; SMILES CCCCCCCCCCCCCCCC(=O)N[C@@H](CCC(=O)N[C@@H](CCC(=O)NCCCC[C@H](NC(=O)[C@H](CC(=O)O)NC(=O)[C@H](CO)NC(=O)[C@H](CC(C)C)NC(=O)[C@H](Cc1ccccc1)NC(=O)[C@@H](NC(=O)CNC(=O)[C@H](CCC(N)=O)NC(=O)[C@@H](CO)NC(=O)[C@@H](N)Cc1c[nH]cn1)[C@@H](C)O)C(=O)N[C@@H](CO)C(=O)N[C@@H](CCCCN)C(=O)N[C@@H](CC(C)C)C(=O)N[C@@H](CC(C)C)C(=O)N[C@@H](CC(=O)O)C(=O)N[C@@H](CO)C(=O)N[C@@H](CCCNC(=N)N)C(=O)N[C@@H](CCCNC(=N)N)C(=O)N[C@@H](C)C(=O)N[C@@H](CCC(N)=O)C(=O)N[C@@H](CC(=O)O)C(=O)N[C@@H](Cc1ccccc1)C(=O)N[C@H](C(=O)N[C@@H](CCC(N)=O)C(=O)N[C@@H](Cc1c[nH]c2ccccc12)C(=O)N[C@@H](CC(C)C)C(=O)N[C@@H](CCSC)C(=O)N[C@@H](CCC(N)=O)C(=O)N[C@H](C(N)=O)[C@@H](C)O)C(C)C)C(=O)O)C(=O)O) [TP536] | – | – | 0.04 | 5 |
| HSQGTFTSDYSKYLDSKRAHDFVQWLLNT-NH2 [PD45] | 0.03 | 0.02 | – | – |
| HSHGTFTSDYSKYLDSRRAQDFVQWLMTT-NH2 [PD51] | 0.03 | 0.02 | – | – |
| HSQGTFFSDYSHWLDSRRAQDFVQWLMNT-NH2 [PD43] | 0.03 | 0.04 | – | – |
| HSQGIFFSDYSKYLDSRRAQDFVQWLMNT-NH2 [PD52] | 0.03 | 0.02 | – | – |
| HSQGTFFSDYSKYLDSRRAQDFVQWLLET-NH2 [PD58] | 0.03 | 0.02 | – | – |
| HSQGTFTSDYSKYLDSRRAQDFVDWLLNA-NH2 [PD48] | 0.07 | 0.02 | – | – |
| HSQGTFTSDYSKYLDSIRAQDFVQWLMDT-NH2 [PD36] | 0.04 | 0.06 | – | – |
| HSQGTFTSDYSKYLDNKRAQDFVQWLMQT-NH2 [PD37] | – | – | 0.16 | 0.05 |
| HSQGTFTSDYSKYLDMQRAHDFVQWLMNT-NH2 [PD55] | 0.01 | 0.01 | – | – |
| HSQGTFTSDYSKYLDSRRAQDFVDWLINS-NH2 [PD50] | 0.02 | 0.01 | – | – |
| H[dS]QGTFTSDK([γGlu-γGlu-Palmitoyl])SKYLDSRRAHDFVQWLLNT-NH2 (N-terminus assumed; SMILES CCCCCCCCCCCCCCCC(=O)N[C@@H](CCC(=O)N[C@@H](CCC(=O)NCCCC[C@H](NC(=O)[C@H](CC(=O)O)NC(=O)[C@H](CO)NC(=O)[C@@H](NC(=O)[C@H](Cc1ccccc1)NC(=O)[C@@H](NC(=O)CNC(=O)[C@H](CCC(N)=O)NC(=O)[C@@H](CO)NC(=O)[C@@H](N)Cc1c[nH]cn1)[C@@H](C)O)[C@@H](C)O)C(=O)N[C@@H](CO)C(=O)N[C@@H](CCCCN)C(=O)N[C@@H](Cc1ccc(O)cc1)C(=O)N[C@@H](CC(C)C)C(=O)N[C@@H](CC(=O)O)C(=O)N[C@@H](CO)C(=O)N[C@@H](CCCNC(=N)N)C(=O)N[C@@H](CCCNC(=N)N)C(=O)N[C@@H](C)C(=O)N[C@@H](Cc1c[nH]cn1)C(=O)N[C@@H](CC(=O)O)C(=O)N[C@@H](Cc1ccccc1)C(=O)N[C@H](C(=O)N[C@@H](CCC(N)=O)C(=O)N[C@@H](Cc1c[nH]c2ccccc12)C(=O)N[C@@H](CC(C)C)C(=O)N[C@@H](CC(C)C)C(=O)N[C@@H](CC(N)=O)C(=O)N[C@H](C(N)=O)[C@@H](C)O)C(C)C)C(=O)O)C(=O)O) [TP535] | – | – | 0.02 | 0.05 |
| H[dS]QGTFTSDK([γGlu-γGlu-Palmitoyl])SKYLDARAAHDFVQWLLNT-NH2 (N-terminus assumed; SMILES CCCCCCCCCCCCCCCC(=O)N[C@@H](CCC(=O)N[C@@H](CCC(=O)NCCCC[C@H](NC(=O)[C@H](CC(=O)O)NC(=O)[C@H](CO)NC(=O)[C@@H](NC(=O)[C@H](Cc1ccccc1)NC(=O)[C@@H](NC(=O)CNC(=O)[C@H](CCC(N)=O)NC(=O)[C@@H](CO)NC(=O)[C@@H](N)Cc1c[nH]cn1)[C@@H](C)O)[C@@H](C)O)C(=O)N[C@@H](CO)C(=O)N[C@@H](CCCCN)C(=O)N[C@@H](Cc1ccc(O)cc1)C(=O)N[C@@H](CC(C)C)C(=O)N[C@@H](CC(=O)O)C(=O)N[C@@H](C)C(=O)N[C@@H](CCCNC(=N)N)C(=O)N[C@@H](C)C(=O)N[C@@H](C)C(=O)N[C@@H](Cc1c[nH]cn1)C(=O)N[C@@H](CC(=O)O)C(=O)N[C@@H](Cc1ccccc1)C(=O)N[C@H](C(=O)N[C@@H](CCC(N)=O)C(=O)N[C@@H](Cc1c[nH]c2ccccc12)C(=O)N[C@@H](CC(C)C)C(=O)N[C@@H](CC(C)C)C(=O)N[C@@H](CC(N)=O)C(=O)N[C@H](C(N)=O)[C@@H](C)O)C(C)C)C(=O)O)C(=O)O) [TP559] | – | – | 0.02 | 0.05 |
| HSQGTFTSDYSKYLDARRAQDFVQWLIRT-NH2 [PD25] | 0.04 | 0.02 | – | – |
| HSQGTFTSDYSKYLDSRRAQDFVQWLINY-NH2 [PD31] | 0.06 | 0.04 | – | – |
| HSQGTFTSDYSKYLDWRRAQDFVQWLQNT-NH2 [PD44] | 0.02 | 0.01 | – | – |
| HSQGTFTSDYSKYLDSRRAQDFVQWLLNQ-NH2 [PD57] | 0.02 | 0.01 | – | – |
| HSQGTFTSDYSKYLDSRMAYDFVQWLMNT-NH2 [PD56] | 0.08 | 0.05 | – | – |
| HSQGTFTSDYSKYLDSRRAQDFVQWLLDS-NH2 [PD59] | 0.02 | 0.01 | – | – |
| HSQGTFTSDYSKYLDELRAYDFVQWLMNT-NH2 [PD27] | 0.05 | 0.03 | – | – |
